Reference: article PMC10776854

B1: MARCH6-FLAG WT [human] / SQLE [human (endogenous in K562)] (parent)
chain 1: MDTAEEDICRVCRSEGTPEKPLYHPCVCTGSIKFIHQECLVQWLKHSRKEYCELCKHRFAFTPIYSPDMPSRLPIQDIFAGLVTSIGTAIRYWFHYTLVAFAWLGVVPLTACRIYKCLFTGSVSSLLTLPLDMLSTENLLADCLQGCFVVTCTLCAFISLVWLREQIVHGGAPIWLEHAAPPFNAAGHHQNEAPAGGNGAENVAADQPANPPAENAVVGENPDAQDDQAEEEEEDNEEEDDAGVEDAADANNGAQDDMNWNALEWDRAAEELTWERMLGLDGSLVFLEHVFWVVSLNTLFILVFAFCPYHIGHFSLVGLGFEEHVQASHFEGLITTIVGYILLAITLIICHGLATLVKFHRSRRLLGVCYIVVKVSLLVVVEIGVFPLICGWWLDICSLEMFDATLKDRELSFQSAPGTTMFLHWLVGMVYVFYFASFILLLREVLRPGVLWFLRNLNDPDFNPVQEMIHLPIYRHLRRFILSVIVFGSIVLLMLWLPIRIIKSVLPNFLPYNVMLYSDAPVSELSLELLLLQVVLPALLEQGHTRQWLKGLVRAWTVTAGYLLDLHSYLLGDQEENENSANQQVNNNQHARNNNAIPVVGEGLHAAHQAILQQGGPVGFQPYRRPLNFPLRIFLLIVFMCITLLIASLICLTLPVFAGRWLMSFWTGTAKIHELYTAACGLYVCWLTIRAVTVMVAWMPQGRRVIFQKVKEWSLMIMKTLIVAVLLAGVVPLLLGLLFELVIVAPLRVPLDQTPLFYPWQDWALGVLHAKIIAAITLMGPQWWLKTVIEQVYANGIRNIDLHYIVRKLAAPVISVLLLSLCVPYVIASGVVPLLGVTAEMQNLVHRRIYPFLLMVVVLMAILSFQVRQFKRLYEHIKNDKYLVGQRLVNYERKSGKQGSSPPPPQSSQE
chain 2: MWTFLGIATFTYFYKKFGDFITLANREVLLCVLVFLSLGLVLSYRCRHRNGGLLGRQQSGSQFALFSDILSGLPFIGFFWAKSPPESENKEQLEARRRRKGTNISETSLIGTAACTSTSSQNDPEVIIVGAGVLGSALAAVLSRDGRKVTVIERDLKEPDRIVGEFLQPGGYHVLKDLGLGDTVEGLDAQVVNGYMIHDQESKSEVQIPYPLSENNQVQSGRAFHHGRFIMSLRKAAMAEPNAKFIEGVVLQLLEEDDVVMGVQYKDKETGDIKELHAPLTVVADGLFSKFRKSLVSNKVSVSSHFVGFLMKNAPQFKANHAELILANPSPVLIYQISSSETRVLVDIRGEMPRNLREYMVEKIYPQIPDHLKEPFLEATDNSHLRSMPASFLPPSSVKKRGVLLLGDAYNMRHPLTGGGMTVAFKDIKLWRKLLKGIPDLYDDAAIFEAKKSFYWARKTSHSFVVNILAQALYELFSATDDSLHQLRKACFLYFKLGGECVAGPVGLLSVLSPNPLVLIGHFFAVAIYAVYFCFKSEPWITKPRALLSSGAVLYKACSVIFPLIYSEMKYMVH

Variants of: B1
Assay: FLAG-immunoprecipitation, Western blot densitometry
Conditions: with SQLE [human (endogenous in K562)], K562 cells expressing MARCH6-FLAG, eight independent biological replicates, parent: 0.55, read off a plot
chain 1 Y92V showed a response (SQLE/MARCH6 ratio) of 0.89.
With chain 1 Y96V the response (SQLE/MARCH6 ratio) was 0.24.
For chain 1 L140A L747A, the response (SQLE/MARCH6 ratio) was 0.5.
Work on chain 1 Y92V Y96V yielded a response (SQLE/MARCH6 ratio) of 0.27.
